Read-outs that look alike come from different tables or passages of the source. Bridge positions count the residues as written; N and C are the ends. Square brackets hold non-standard residues; d marks the D form. Ends that are not written are not given here. mXylyl = xylyl linker from dibromoxylene joining the two cysteines; NMeW = CN[C@@H](Cc1c[nH]c2ccccc12)C(=O)O; NMeY = CN[C@@H](Cc1ccc(O)cc1)C(=O)O; NMeT = CN[C@H](C(=O)O)[C@@H](C)O; Phg = N[C@H](C(=O)O)c1ccccc1; Tle = CC(C)(C)[C@H](N)C(=O)O; NMeS = CN[C@@H](CO)C(=O)O; NMeA = CN[C@@H](C)C(=O)O; Nva = CCC[C@H](N)C(=O)O
Tests used:
Assay in all cases: cell-based or functional assay
[1] = target: T1, Activated human plasma kallikrein (Enzyme Research Laboratories, HPKa 1303) (human, UniProt P03952 20-638)
T1 sequence (P03952 20-638 limits assumed): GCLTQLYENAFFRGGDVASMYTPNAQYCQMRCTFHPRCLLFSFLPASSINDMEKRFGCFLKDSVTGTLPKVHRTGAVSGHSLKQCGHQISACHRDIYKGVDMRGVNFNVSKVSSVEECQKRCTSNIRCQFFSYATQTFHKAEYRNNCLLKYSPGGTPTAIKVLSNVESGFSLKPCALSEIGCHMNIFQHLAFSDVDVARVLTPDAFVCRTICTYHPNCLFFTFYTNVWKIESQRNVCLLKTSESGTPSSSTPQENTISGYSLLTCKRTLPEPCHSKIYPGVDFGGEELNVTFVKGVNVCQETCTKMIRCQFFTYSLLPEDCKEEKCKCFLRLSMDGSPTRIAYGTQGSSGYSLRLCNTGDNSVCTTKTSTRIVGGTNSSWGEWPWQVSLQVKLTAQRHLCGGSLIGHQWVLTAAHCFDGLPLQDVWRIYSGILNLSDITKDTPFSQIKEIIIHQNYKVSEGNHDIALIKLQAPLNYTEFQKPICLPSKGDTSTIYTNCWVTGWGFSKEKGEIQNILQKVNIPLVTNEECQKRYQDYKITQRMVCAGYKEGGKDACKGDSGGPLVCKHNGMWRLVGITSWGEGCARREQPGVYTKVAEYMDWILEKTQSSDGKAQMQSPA

[2] = target: T2, tissue kallikrein KLK13 (R&D Systems) (human, UniProt Q9UKR3 17-277, limits assumed)
T2 sequence (looked up): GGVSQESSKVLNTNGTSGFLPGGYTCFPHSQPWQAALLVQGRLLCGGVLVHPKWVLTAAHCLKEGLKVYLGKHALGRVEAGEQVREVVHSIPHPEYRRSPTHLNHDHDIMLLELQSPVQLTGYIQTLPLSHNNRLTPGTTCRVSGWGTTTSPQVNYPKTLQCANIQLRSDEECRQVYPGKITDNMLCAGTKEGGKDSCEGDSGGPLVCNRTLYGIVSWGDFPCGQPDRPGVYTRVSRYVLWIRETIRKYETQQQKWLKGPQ

[3] = target: T1, Activated human plasma kallikrein …; remark: listed apart in the source
[4] = target: mouse plasma kallikrein (R&D Systems) (mouse, UniProt P26262 20-638)
Sequence of mouse plasma kallikrein (R&D Systems) (P26262 20-638 limits assumed): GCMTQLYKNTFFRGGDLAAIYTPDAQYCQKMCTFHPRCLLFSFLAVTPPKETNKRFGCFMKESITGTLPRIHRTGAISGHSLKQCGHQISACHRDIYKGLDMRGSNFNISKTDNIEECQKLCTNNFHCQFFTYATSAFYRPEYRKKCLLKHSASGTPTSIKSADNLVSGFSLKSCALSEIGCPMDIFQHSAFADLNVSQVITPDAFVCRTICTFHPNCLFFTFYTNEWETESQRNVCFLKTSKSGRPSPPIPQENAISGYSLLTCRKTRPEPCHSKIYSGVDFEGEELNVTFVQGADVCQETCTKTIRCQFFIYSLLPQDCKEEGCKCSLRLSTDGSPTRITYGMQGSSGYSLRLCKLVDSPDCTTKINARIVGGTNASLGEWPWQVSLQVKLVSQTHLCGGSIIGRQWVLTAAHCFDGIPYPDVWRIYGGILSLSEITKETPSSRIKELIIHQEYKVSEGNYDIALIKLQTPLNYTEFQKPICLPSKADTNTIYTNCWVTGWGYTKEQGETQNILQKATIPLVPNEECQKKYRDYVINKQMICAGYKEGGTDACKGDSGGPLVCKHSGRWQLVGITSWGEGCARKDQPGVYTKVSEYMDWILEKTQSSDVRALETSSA

[5] = target: Factor XIa (Enzyme Research Laboratories) (human, UniProt P03951 19-625)
Sequence of Factor XIa (Enzyme Research Laboratories) (P03951 19-625 limits assumed): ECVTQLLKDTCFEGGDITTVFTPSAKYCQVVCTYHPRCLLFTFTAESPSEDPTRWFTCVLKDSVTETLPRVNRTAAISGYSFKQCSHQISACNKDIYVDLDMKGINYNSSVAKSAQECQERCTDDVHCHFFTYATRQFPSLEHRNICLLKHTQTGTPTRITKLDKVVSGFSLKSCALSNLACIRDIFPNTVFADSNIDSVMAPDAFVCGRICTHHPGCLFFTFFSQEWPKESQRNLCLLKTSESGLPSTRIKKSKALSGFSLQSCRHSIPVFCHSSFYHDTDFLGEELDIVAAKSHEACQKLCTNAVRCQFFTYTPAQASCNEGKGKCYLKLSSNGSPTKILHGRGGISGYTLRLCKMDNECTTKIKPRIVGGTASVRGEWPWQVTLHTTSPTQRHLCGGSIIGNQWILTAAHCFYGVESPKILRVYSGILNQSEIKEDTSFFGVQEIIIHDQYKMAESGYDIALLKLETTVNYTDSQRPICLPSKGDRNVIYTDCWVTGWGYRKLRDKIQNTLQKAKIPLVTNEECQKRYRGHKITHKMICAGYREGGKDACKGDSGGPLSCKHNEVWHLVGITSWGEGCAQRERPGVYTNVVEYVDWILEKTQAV

[6] = target: T1, Activated human plasma kallikrein …; remark: listed apart in the source
[7] = target: T3, Factor XIIa (Enzyme Research Laboratories) (human, UniProt P00748 20-615, limits assumed)
T3 sequence (looked up): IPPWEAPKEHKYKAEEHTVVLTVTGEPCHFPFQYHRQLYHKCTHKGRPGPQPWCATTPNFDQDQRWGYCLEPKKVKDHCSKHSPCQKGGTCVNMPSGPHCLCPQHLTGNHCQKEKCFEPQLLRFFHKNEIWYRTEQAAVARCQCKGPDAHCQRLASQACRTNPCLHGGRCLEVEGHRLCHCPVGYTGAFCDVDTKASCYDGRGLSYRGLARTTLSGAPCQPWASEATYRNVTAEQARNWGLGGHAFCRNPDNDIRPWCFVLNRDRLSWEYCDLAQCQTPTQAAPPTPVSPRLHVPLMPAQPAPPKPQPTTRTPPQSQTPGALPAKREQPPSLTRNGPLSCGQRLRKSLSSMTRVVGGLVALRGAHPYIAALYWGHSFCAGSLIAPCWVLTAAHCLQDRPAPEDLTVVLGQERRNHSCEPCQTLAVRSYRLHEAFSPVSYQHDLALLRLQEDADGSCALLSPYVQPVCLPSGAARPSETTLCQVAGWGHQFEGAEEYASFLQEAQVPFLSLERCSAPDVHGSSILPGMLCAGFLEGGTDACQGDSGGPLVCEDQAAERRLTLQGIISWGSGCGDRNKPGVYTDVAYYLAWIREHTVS

[8] = target: thrombin (Enzyme Research Laboratories) (human, UniProt P00734 328-622)
[9] = target: plasmin (Enzyme Research Laboratories) (human, UniProt P00747 97-810, limits assumed)
Sequence of plasmin (Enzyme Research Laboratories) (P00747 97-810 limits assumed): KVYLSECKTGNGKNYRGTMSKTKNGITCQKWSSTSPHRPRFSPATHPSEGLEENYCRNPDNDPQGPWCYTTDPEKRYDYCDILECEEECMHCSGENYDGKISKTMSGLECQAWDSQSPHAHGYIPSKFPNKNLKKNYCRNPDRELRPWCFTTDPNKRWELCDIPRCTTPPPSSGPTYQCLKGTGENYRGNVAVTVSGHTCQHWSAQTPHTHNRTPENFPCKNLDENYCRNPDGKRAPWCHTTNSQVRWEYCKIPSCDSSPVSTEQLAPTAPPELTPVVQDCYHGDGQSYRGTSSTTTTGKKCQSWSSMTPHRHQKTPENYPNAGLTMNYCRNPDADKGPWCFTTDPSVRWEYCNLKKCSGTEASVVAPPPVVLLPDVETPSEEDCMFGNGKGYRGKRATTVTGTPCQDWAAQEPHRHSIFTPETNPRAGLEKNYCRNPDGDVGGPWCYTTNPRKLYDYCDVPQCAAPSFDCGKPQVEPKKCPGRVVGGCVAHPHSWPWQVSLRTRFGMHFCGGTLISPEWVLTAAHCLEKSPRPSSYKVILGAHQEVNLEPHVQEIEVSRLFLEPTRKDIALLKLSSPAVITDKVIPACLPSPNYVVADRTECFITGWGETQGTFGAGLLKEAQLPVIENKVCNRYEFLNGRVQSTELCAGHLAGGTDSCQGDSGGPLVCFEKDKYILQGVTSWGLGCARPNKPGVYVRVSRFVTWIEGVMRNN

[10] = target: Factor Xa (Enzyme Research Laboratories) (human, UniProt P00742 41-488, limits assumed)
Sequence of Factor Xa (Enzyme Research Laboratories) (P00742 41-488 limits assumed): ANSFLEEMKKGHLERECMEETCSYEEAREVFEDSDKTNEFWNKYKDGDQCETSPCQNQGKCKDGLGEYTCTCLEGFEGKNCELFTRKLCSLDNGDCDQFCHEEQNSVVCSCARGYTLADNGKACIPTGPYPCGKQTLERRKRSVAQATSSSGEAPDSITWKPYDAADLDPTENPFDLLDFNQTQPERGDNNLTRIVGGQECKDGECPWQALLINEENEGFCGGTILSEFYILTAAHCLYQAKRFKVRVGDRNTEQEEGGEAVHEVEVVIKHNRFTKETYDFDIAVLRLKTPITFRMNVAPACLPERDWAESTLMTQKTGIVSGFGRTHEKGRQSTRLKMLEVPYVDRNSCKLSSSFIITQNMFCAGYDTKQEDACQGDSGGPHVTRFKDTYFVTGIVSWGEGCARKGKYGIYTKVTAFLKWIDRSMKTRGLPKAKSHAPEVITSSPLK

[11] = target: T4, Factor VIIa (Enzyme Research Laboratories) (human, UniProt P08709 61-466)
T4 sequence (looked up): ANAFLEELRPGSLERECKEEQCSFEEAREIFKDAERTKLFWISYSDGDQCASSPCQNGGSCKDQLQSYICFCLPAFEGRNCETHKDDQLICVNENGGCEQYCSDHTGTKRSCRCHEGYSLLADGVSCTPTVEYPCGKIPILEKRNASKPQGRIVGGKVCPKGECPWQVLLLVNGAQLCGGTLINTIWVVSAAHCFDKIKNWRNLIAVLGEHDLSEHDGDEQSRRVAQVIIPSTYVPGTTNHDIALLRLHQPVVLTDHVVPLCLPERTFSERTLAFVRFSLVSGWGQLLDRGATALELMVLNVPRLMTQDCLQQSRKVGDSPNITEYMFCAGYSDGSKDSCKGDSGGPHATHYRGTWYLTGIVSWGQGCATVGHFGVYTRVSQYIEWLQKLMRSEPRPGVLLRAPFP

[12] = target: T1, Activated human plasma kallikrein …; remark: listed apart in the source

MCES[Phg]CRV-NH2 (linker 2-6 via mXylyl) [R2012]
Avg. IC50 [1]: 8.3 nM | KLK13 IC50 [2]: > 100000 nM | Human Kallikrein IC50 [3]: 8.3 nM | Mouse Kallikrein IC50 [4]: 11.3 nM | Factor XIa IC50 [5]: > 8300 nM

B1: R2142 (peptide)
peptide: Ac-CNYWSPWTAC-NH2
modifications: disulfide 1-10
SMILES: CC(=O)N[C@H]1CSSC[C@@H](C(N)=O)NC(=O)[C@H](C)NC(=O)[C@H]([C@@H](C)O)NC(=O)[C@H](Cc2c[nH]c3ccccc23)NC(=O)[C@@H]2CCCN2C(=O)[C@H](CO)NC(=O)[C@H](Cc2c[nH]c3ccccc23)NC(=O)[C@H](Cc2ccc(O)cc2)NC(=O)[C@H](CC(N)=O)NC1=O
Avg. IC50 [6]: 2.7 nM

Ac-ANYWSPWTAC-NH2 [R2143]
Avg. IC50 [6]: 48.4 nM

Ac-CNYWSPWTAA-NH2 [R2144]
Avg. IC50 [6]: 95.5 nM

Ac-ANYWSPWTAA-NH2 [R2145]
Avg. IC50 [6]: 58.8 nM

Ac-CNYWSPWAAC-NH2 (cysteine pairing not given here) [R2146]
Avg. IC50 [6]: 17.5 nM

MCE[NMeS]ICRV-NH2 (linker 2-6 via mXylyl) [R2019]
Avg. IC50 [1]: 52.3 nM | Factor XIIa IC50 [7]: > 12500 nM | KLK13 IC50 [2]: > 16400 nM | Thrombin IC50 [8]: > 100000 nM | Plasmin IC50 [9]: > 21000 nM | Human Kallikrein IC50 [3]: 52.3 nM | Mouse Kallikrein IC50 [4]: 85.6 nM | Factor XIa IC50 [5]: > 9100 nM | Factor Xa IC50 [10]: > 10000 nM | Factor VIIa IC50 [11]: > 100000 nM

Ac-CESICRV-NH2 (linker 1-5 via mXylyl) [R2023]
Avg. IC50 [1]: 19 nM | Factor XIIa IC50 [7]: > 100000 nM | KLK13 IC50 [2]: > 100000 nM | Thrombin IC50 [8]: > 100000 nM | Plasmin IC50 [9]: > 100000 nM | Human Kallikrein IC50 [3]: 19 nM | Mouse Kallikrein IC50 [4]: 47.3 nM | Factor XIa IC50 [5]: > 12100 nM | Factor Xa IC50 [10]: > 7000 nM | Factor VIIa IC50 [11]: > 100000 nM

CNYWSPWTAA (also: Cyclo(1,10): ring between residues 1 and 10, bond kind not given here) [R2222]
Avg. IC50 [12]: 926 nM

Ac-CN[NMeY]W[NMeS]PW[NMeT]AC-NH2 (linker 1-10 via mXylyl) [R2223]
Avg. IC50 [12]: > 100000 nM

Ac-CN[NMeY]W[NMeS]PW[NMeT]AC-NH2 (disulfide 1-10) [R2224]
Avg. IC50 [12]: > 100000 nM

Ac-CNYWSPWTA[dC]-NH2 (cysteine pairing not given here) [R2225]
Avg. IC50 [12]: 8.1 nM

Ac-CNYWSPWT[dA]C-NH2 (cysteine pairing not given here) [R2226]
Avg. IC50 [12]: 222 nM

Ac-CNYWSPW[dT]AC-NH2 (cysteine pairing not given here) [R2227]
Avg. IC50 [12]: 323 nM

Ac-CNYWSP[dW]TAC-NH2 (cysteine pairing not given here) [R2228]
Avg. IC50 [12]: > 10600 nM

Ac-CNYWS[dP]WTAC-NH2 (cysteine pairing not given here) [R2229]
Avg. IC50 [12]: > 14300 nM

Ac-CNYW[dS]PWTAC-NH2 (cysteine pairing not given here) [R2230]
Avg. IC50 [12]: > 6580 nM

Ac-CNY[dW]SPWTAC-NH2 (cysteine pairing not given here) [R2231]
Avg. IC50 [12]: 760 nM

Ac-CN[dY]WSPWTAC-NH2 (cysteine pairing not given here) [R2232]
Avg. IC50 [12]: > 1950 nM

Ac-C[dN]YWSPWTAC-NH2 (cysteine pairing not given here) [R2233]
Avg. IC50 [12]: 305 nM

Ac-CNYWSPWT[NMeA]C-NH2 (cysteine pairing not given here) [R2234]
Avg. IC50 [12]: 2.7 nM

Ac-CNYWSPW[NMeT]AC-NH2 (cysteine pairing not given here) [R2235]
Avg. IC50 [12]: 101 nM

Ac-CNYWSP[NMeW]TAC-NH2 (cysteine pairing not given here) [R2236]
Avg. IC50 [12]: > 4900 nM

Ac-CNYW[NMeS]PWTAC-NH2 (cysteine pairing not given here) [R2237]
Avg. IC50 [12]: > 13900 nM

Ac-CNY[NMeW]SPWTAC-NH2 (cysteine pairing not given here) [R2238]
Avg. IC50 [12]: > 4520 nM

Ac-CN[NMeY]WSPWTAC-NH2 (cysteine pairing not given here) [R2239]
Avg. IC50 [12]: > 12500 nM

MCESICRV-NH2 (linker 2-6 via mXylyl) [R2006]
Avg. IC50 [1]: 11.8 nM | Factor XIIa IC50 [7]: > 100000 nM | KLK13 IC50 [2]: > 100000 nM | Thrombin IC50 [8]: > 100000 nM | Plasmin IC50 [9]: > 100000 nM | Human Kallikrein IC50 [3]: 25 nM | Mouse Kallikrein IC50 [4]: 42 nM | Factor XIa IC50 [5]: > 11600 nM | Factor Xa IC50 [10]: > 7000 nM | Factor VIIa IC50 [11]: > 100000 nM

MCESICR[Tle]-NH2 (linker 2-6 via mXylyl) [R2010]
Avg. IC50 [1]: 9.9 nM | Factor XIIa IC50 [7]: > 100000 nM | KLK13 IC50 [2]: > 100000 nM | Thrombin IC50 [8]: > 100000 nM | Plasmin IC50 [9]: > 100000 nM | Human Kallikrein IC50 [3]: 9.9 nM | Mouse Kallikrein IC50 [4]: 38.8 nM | Factor XIa IC50 [5]: > 15000 nM | Factor Xa IC50 [10]: > 100000 nM | Factor VIIa IC50 [11]: > 100000 nM

[Nva]CEP[Phg]CR[Tle]-NH2 (linker 2-6 via mXylyl) [R2030]
Avg. IC50 [1]: 25 nM | Factor XIIa IC50 [7]: > 100000 nM | KLK13 IC50 [2]: > 100000 nM | Thrombin IC50 [8]: > 100000 nM | Plasmin IC50 [9]: > 100000 nM | Human Kallikrein IC50 [3]: 25 nM | Mouse Kallikrein IC50 [4]: 63.9 nM | Factor XIa IC50 [5]: > 10400 nM | Factor Xa IC50 [10]: > 100000 nM | Factor VIIa IC50 [11]: > 100000 nM
